The text below walks through data of US20150337049A1 (Genmab, published 2015).

Residue numbers refer to the chain shown, from its start. In names and notes the source's numbering stands.

The chains are these.
B1: bsIgG1-CD3×HER2 (IgG1-huCLB-T3/4×HER2-169), wild-type Fc (bispecific antibody)
heavy 1: not shown
VL 1: EIVLTQSPATLSLSPGERATLSCSASSSVTYVHWYQQKPGQAPRLLIYDTSKLASGIPARFSGSGSGTDFTLTISSLEPEDFAVYYCFQGSGYPLTFGSGTKLEMR
heavy 2: not shown
VL 2: EIVLTQSPATLSLSPGERATLSCRASQSVSSYLAWYQQKPGQAPRLLIYDASNRATGIPARFSGSGSGTDFTLTISSLEPEDFAVYYCQQRSNWPRTFGQGTKVEIK
notes: also called bispecific IgG1-CD3×HER2; (bs)IgG-CD3×HER2
B2: bsIgG1-CD3×HER2-LALA (IgG1-huCLB-T3/4×HER2-169 with L234A/L235A) (bispecific antibody)
heavy 1: EVQLVESGGGLVKPGGSLRLSCAASGFTFSSYGMFWVRQAPGKGLEWVATISRYSRYIYYPDSVKGRFTISRDNAKNSLYLQMNSLRAEDTAVYYCARRPLYGSSPDYWGQGTLVTVSSASTKGPSVFPLAPSSKSTSGGTAALGCLVKDYFPEPVTVSWNSGALTSGVHTFPAVLQSSGLYSLSSVVTVPSSSLGTQTYICNVNHKPSNTKVDKRVEPKSCDKTHTCPPCPAPEAAGGPSVFLFPPKPKDTLMISRTPEVTCVVVDVSHEDPEVKFNWYVDGVEVHNAKTKPREEQYNSTYRVVSVLTVLHQDWLNGKEYKCKVSNKALPAPIEKTISKAKGQPREPQVYTLPPSREEMTKNQVSLTCLVKGFYPSDIAVEWESNGQPENNYKTTPPVLDSDGSFLLYSKLTVDKSRWQQGNVFSCSVMHEALHNHYTQKSLSLSPGK
VL 1: B1 VL 1
heavy 2: QVQLVQSGAEVKKPGASVKVSCKASGYTFTNYGISWVRQAPGQGLEWMGWLSAYSGNTIYAQKLQGRVTMTTDTSTTTAYMELRSLRSDDTAVYYCARDRIVVRPDYFDYWGQGTLVTVSSASTKGPSVFPLAPSSKSTSGGTAALGCLVKDYFPEPVTVSWNSGALTSGVHTFPAVLQSSGLYSLSSVVTVPSSSLGTQTYICNVNHKPSNTKVDKRVEPKSCDKTHTCPPCPAPEAAGGPSVFLFPPKPKDTLMISRTPEVTCVVVDVSHEDPEVKFNWYVDGVEVHNAKTKPREEQYNSTYRVVSVLTVLHQDWLNGKEYKCKVSNKALPAPIEKTISKAKGQPREPQVYTLPPSREEMTKNQVSLTCLVKGFYPSDIAVEWESNGQPENNYKTTPPVLDSDGSFFLYSRLTVDKSRWQQGNVFSCSVMHEALHNHYTQKSLSLSPGK
VL 2: B1 VL 2
B3: bsIgG1-CD3×HER2-LFLENQ (IgG1-huCLB-T3/4×HER2-169 with L234F/L235E/N297Q) (bispecific antibody)
heavy 1: B2 heavy 1 with A236F, A237E, N299Q
VL 1: B1 VL 1
heavy 2: B2 heavy 2 with A238F, A239E, N301Q
VL 2: B1 VL 2
B4: bsIgG1-CD3×HER2-LFLE (IgG1-huCLB-T3/4×HER2-169 with L234F/L235E) (bispecific antibody)
heavy 1: B2 heavy 1 with A236F, A237E
VL 1: B1 VL 1
heavy 2: B2 heavy 2 with A238F, A239E
VL 2: B1 VL 2
B5: bsIgG1-CD3×HER2-LFLEDA (IgG1-huCLB-T3/4×HER2-169 with L234F/L235E/D265A) (bispecific antibody)
heavy 1: B2 heavy 1 with A236F, A237E, D267A
VL 1: B1 VL 1
heavy 2: B2 heavy 2 with A238F, A239E, D269A
VL 2: B1 VL 2
notes: also called huCLB-T3/4×HER2-LFLEDA; copies: 1 + 1 + 1 + 1
B6: bsIgG1-CD3×HER2-DA (IgG1-huCLB-T3/4×HER2-169 with D265A) (bispecific antibody)
heavy 1: not shown
VL 1: B1 VL 1
heavy 2: not shown
VL 2: B1 VL 2
B7: bsIgG1-CD3×HER2-LFLEPS (IgG1-huCLB-T3/4×HER2-169 with L234F/L235E/P331S) (bispecific antibody)
heavy 1: B2 heavy 1 with A236F, A237E, P333S
VL 1: B1 VL 1
heavy 2: B2 heavy 2 with A238F, A239E, P335S
VL 2: B1 VL 2
B8: bsIgG1-CD3×HER2-DAPS (IgG1-huCLB-T3/4×HER2-169 with D265A/P331S) (bispecific antibody)
heavy 1: B2 heavy 1 with A236L, A237L, D267A, P333S
VL 1: B1 VL 1
heavy 2: B2 heavy 2 with A238L, A239L, D269A, P335S
VL 2: B1 VL 2
B9: bsIgG1-CD3×HER2-DANQ (IgG1-huCLB-T3/4×HER2-169 with D265A/N297Q) (bispecific antibody)
heavy 1: B2 heavy 1 with A236L, A237L, D267A, N299Q
VL 1: B1 VL 1
heavy 2: B2 heavy 2 with A238L, A239L, D269A, N301Q
VL 2: B1 VL 2
B10: IgG1-CD3 (IgG1-huCLB-T3/4-F405L), wild-type Fc (antibody)
heavy: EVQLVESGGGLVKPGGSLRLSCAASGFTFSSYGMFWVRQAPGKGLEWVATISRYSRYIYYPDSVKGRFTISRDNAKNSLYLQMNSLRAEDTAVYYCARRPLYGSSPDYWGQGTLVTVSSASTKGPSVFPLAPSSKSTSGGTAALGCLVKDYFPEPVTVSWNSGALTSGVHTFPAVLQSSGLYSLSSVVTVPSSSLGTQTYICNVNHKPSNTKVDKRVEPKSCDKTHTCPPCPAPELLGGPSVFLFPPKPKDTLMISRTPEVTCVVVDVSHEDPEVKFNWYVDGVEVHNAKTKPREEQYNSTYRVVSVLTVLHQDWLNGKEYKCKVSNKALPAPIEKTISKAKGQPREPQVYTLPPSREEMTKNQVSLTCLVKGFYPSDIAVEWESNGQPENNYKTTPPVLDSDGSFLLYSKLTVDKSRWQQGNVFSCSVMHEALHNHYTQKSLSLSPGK
VL: B1 VL 1
notes: also called wild-type IgG1-CD3; IgG1-huCLB-3/4
B11: IgG1-CD3-LFLEDA (IgG1-huCLB-T3/4-F405L with L234F/L235E/D265A) (antibody, name in EU numbering)
heavy: B2 heavy 1 with A236F, A237E, D267A
VL: B1 VL 1
notes: IgG1, F405L
B12: IgG1-CD3-DAPS (IgG1-huCLB-T3/4-F405L with D265A/P331S) (antibody)
heavy: B2 heavy 1 with A236L, A237L, D267A, P333S
VL: B1 VL 1
notes: IgG1, F405L
B13: IgG1-CD3-N297Q (IgG1-huCLB-T3/4-F405L with N297Q) (antibody)
heavy: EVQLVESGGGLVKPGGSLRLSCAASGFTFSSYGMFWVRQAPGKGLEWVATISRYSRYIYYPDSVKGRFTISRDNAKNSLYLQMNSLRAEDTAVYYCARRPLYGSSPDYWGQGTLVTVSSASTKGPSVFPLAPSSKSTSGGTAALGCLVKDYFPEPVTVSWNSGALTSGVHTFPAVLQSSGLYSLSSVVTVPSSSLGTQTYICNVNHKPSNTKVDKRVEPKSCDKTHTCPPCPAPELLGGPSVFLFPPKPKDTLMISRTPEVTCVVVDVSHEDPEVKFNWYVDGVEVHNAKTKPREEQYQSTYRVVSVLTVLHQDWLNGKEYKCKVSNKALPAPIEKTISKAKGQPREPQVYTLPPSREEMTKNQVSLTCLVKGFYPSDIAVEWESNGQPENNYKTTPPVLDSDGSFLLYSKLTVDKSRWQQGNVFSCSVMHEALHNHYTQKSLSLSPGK
VL: B1 VL 1
notes: IgG1, F405L; also called NQ
B14: IgG1-CD3-DA (IgG1-huCLB-T3/4-F405L with D265A) (antibody)
heavy: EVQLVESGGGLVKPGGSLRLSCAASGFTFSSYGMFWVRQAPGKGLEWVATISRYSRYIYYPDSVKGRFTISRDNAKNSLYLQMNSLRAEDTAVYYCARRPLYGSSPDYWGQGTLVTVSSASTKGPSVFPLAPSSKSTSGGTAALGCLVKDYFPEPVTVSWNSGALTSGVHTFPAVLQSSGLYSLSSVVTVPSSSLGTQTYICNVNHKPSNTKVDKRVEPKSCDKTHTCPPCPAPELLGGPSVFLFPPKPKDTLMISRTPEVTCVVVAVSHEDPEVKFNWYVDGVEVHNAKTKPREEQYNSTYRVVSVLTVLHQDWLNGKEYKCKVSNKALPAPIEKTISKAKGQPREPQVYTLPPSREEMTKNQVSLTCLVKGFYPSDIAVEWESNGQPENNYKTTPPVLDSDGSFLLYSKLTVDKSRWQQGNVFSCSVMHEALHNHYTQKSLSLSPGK
VL: B1 VL 1
notes: IgG1, F405L
B15: IgG1-CD3-LALA (IgG1-huCLB-T3/4-F405L with L234A/L235A) (antibody)
heavy: B2 heavy 1
VL: B1 VL 1
notes: IgG1, F405L
B16: IgG1-CD3-LFLENQ (IgG1-huCLB-T3/4-F405L with L234F/L235E/N297Q) (antibody)
heavy: B2 heavy 1 with A236F, A237E, N299Q
VL: B1 VL 1
notes: IgG1, F405L
B17: IgG1-CD3-… (IgG1-huCLB-T3/4-F405L with L234F/L235E/D265A/N297Q/P331S) (antibody)
heavy: B2 heavy 1 with A236F, A237E, D267A, N299Q, P333S
VL: B1 VL 1
notes: IgG1, F405L
B18: IgG1-CD3-LFLE (IgG1-huCLB-T3/4-F405L with L234F/L235E) (antibody)
heavy: B2 heavy 1 with A236F, A237E
VL: B1 VL 1
notes: IgG1, F405L
B19: IgG1-CD3-DANQ (IgG1-huCLB-T3/4-F405L with D265A/N297Q) (antibody)
heavy: B2 heavy 1 with A236L, A237L, D267A, N299Q
VL: B1 VL 1
notes: IgG1, F405L
B20: IgG1-CD3-LFLEPS (IgG1-huCLB-T3/4-F405L with L234F/L235E/P331S) (antibody)
heavy: B2 heavy 1 with A236F, A237E, P333S
VL: B1 VL 1
notes: IgG1, F405L

The first assay deals with T1, HER2 on HER2-positive AU565 cells (human, UniProt P04626 23-1255).
T1 construct: whole, on cells
The assay can be described thus: FACS, AU565 cells. On the procedure:
Cells (1×10^5 cells/well) were incubated in polystyrene 96-well round-bottom plates (Greiner bio-one 650101) with serial dilutions of antibody preparations (range 2 to 10000 ng/mL in 4-fold dilutions for Jurkat cells and range 1 to 3000 ng/mL in 4-fold dilutions for on AU565 cells) in 100 μL PBS/0.1% BSA/0.02% azide at 4° C. for 30 min.
After washing twice in PBS/0.1% BSA/0.02% azide, cells were incubated in 100 μL with secondary antibody at 4° C. for 30 min. As a secondary antibody, R-Phycoerythrin (PE)-conjugated goat-anti-human IgG F(ab′)₂ (109-116-098, Jackson ImmunoResearch Laboratories, Inc., West Grove, Pa.) diluted 1/100 in PBS/0.1% BSA/0.02% azide, was used for all experiments. Next, cells were washed twice in PBS/0.1% BSA/0.02% azide, resuspended in 150 μL PBS/0.1% BSA/0.02% azide and analyzed on a FACS CantoII (BD Biosciences). Binding curves were analyzed using non-linear regression (sigmoidal dose-response with variable slope) using GraphPad Prism V5.04 software (GraphPad Software, San Diego, Calif., USA).
On the technique in general: A flow cytometer gives signals particle by particle.
Regarding B1, the binding result is reported as “binds”.

B2: the binding result is recorded as “binds”.

B3: the binding result is “binds”.

For B4, the binding result is recorded as “binds”.

For B5, the binding result is “binds”.

As for B6, the binding result is reported as “binds”.

For the molecule B7, the binding result was “binds”.

B8: the binding result was “binds”.

With B9, the binding result is recorded as “binds”.

For a further assay, the target named is T2, C1q (from 3% pooled human serum) (human, UniProt P02745 23-245; P02746 28-253; P02747 29-245).
T2 construct: Native C1q of pooled human serum, detected with rabbit anti-human C1q
The assay can be described thus: ELISA, antibody coated, 3% pooled human serum, anti-C1q detection. On the procedure: Plates were washed and blocked with PBS supplemented with 0.025% Tween 20 and 0.1% gelatine. […] Detection was performed by addition of 1 mg/mL 2,2′-azino-bis(3-ethylbenzothiazoline-6-sulfonic acid) (ABTS; Roche, Mannheim, Germany) for about 30 min. The reaction was stopped by the addition of 100 μL 2% oxalic acid. Absorbance was measured at 405 nm in a microplate reader (Biotek, Winooski, Vt.). Log transformed data were analyzed by fitting sigmoidal dose-response curves with variable slope using GraphPad Prism software.
For the molecule B1, the binding result is given as “binds”.

Take B10: the binding result is on record as “binds”.

On to B11, for which the binding result is reported as “no binding (tested: coated at 7-30000 ng/mL)”.

With B2, the binding result was “no binding (tested: coated at 7-30000 ng/mL)”.

Take B3: the binding result is on record as “no binding (tested: coated at 7-30000 ng/mL)”.

As to B4, the binding result is on record as “no binding (tested: coated at 7-30000 ng/mL)”.

Turning to B5, the binding result was “no binding (tested: coated at 7-30000 ng/mL)”.

As to B6, the binding result is listed as “no binding (tested: coated at 7-30000 ng/mL)”.

Turning to B12, the binding result is given as “no binding (tested: coated at 7-30000 ng/mL)”.

As to B13, the binding result was “no binding (tested: coated at 7-30000 ng/mL)”.

Consider B14, for which the binding result is reported as “no binding (tested: coated at 7-30000 ng/mL)”.

On to B7, for which the binding result is on record as “no binding (tested: coated at 7-30000 ng/mL)”.

On to B8, for which the binding result is reported as “no binding (tested: coated at 7-30000 ng/mL)”.

On to B15, for which the binding result was “no binding (tested: coated at 7-30000 ng/mL)”.

Turning to B16, the binding result is reported as “no binding (tested: coated at 7-30000 ng/mL)”.

Turning to B17, the binding result was “no binding (tested: coated at 7-30000 ng/mL)”.

For the molecule B18, the binding result is reported as “no binding (tested: coated at 7-30000 ng/mL)”.

Consider B19, for which the binding result is “no binding (tested: coated at 7-30000 ng/mL)”.

B20: the binding result is recorded as “no binding (tested: coated at 7-30000 ng/mL)”.

For B9, the binding result is recorded as “no binding (tested: coated at 7-30000 ng/mL)”.
